The target of the test is C3. Description: analytical ultracentrifugation; self-association (dimer).

One substance from US20160340412A1 can be followed below.

In general, Kd refers to the concentration at which binding is half-saturated. Low readings indicate a tighter complex, high ones a looser complex.

C3 yielded a Kd of 188 µM.
